Reference: patent publication US10413588B2, “Probiotic function of human intelectin” (Wisconsin Alumni Research Foundation, priority 2015, dated 2019)
Values joined by “and” are separate entries in the source; they are usually repeats but may differ in a detail not shown here. Equal values may be shown once.

B1: Strep-mIntL-1: purified Strep-tagged mouse intelectin-1 (protein, UniProt O88310 19-298, looked up)
Intelectin-1a: AAEENLDTNRWGNSFFSSLPRSCKEIKQEHTKAQDGLYFLRTKNGVIYQTFCDMTTAGGGWTLVASVHENNMRGKCTVGDRWSSQQGNRADYPEGDGNWANYNTFGSAEAATSDDYKNPGYFDIQAENLGIWHVPNKSPLHNWRKSSLLRYRTFTGFLQHLGHNLFGLYKKYPVKYGEGKCWTDNGPALPVVYDFGDARKTASYYSPSGQREFTAGYVQFRVFNNERAASALCAGVRVTGCNTEHHCIGGGGFFPEGNPVQCGDFASFDWDGYGTHNGYS
modifications: Strep-tag
B2: hIntL-2: human intelectin-2, accession no. Q8WWU7, highly homologous to hIntL-1 (protein, listed as Homo sapiens)
chain: MLSMLRTMTRLCFLLFFSVATSGCSAAAASSLEMLSREFETCAFSFSSLPRSCKEIKERCHSAGDGLYFLRTKNGVVYQTFCDMTSGGGGWTLVASVHENDMRGKCTVGDRWSSQQGNKADYPEGDGNWANYNTFGSAEAATSDDYKNPGYYDIQAKDLGIWHVPNKSPMQHWRNSALLRYRTNTGFLQRLGHNLFGIYQKYPVKYRSGKCWNDNGPAIPVVYDFGDAKKTASYYSPYGQREFVAGFVQFRVFNNERAANALCAGIKVTGCNTEHHCIGGGGFFPQGKPRQCGDFSAFDWDGYGTHVKSSCSREITEAAVLLFYR

How the values were obtained:
[1] = Mouse intelectin-1 SPR on immobilized carbohydrates; format: binding; conditions: referenced to biotin channel
Description: FIG. 23. Mouse intelectin-1 binding to immobilized carbohydrates. Purified Strep-mIntL-1 binding to immobilized carbohydrates monitored using SPR. […] Data are referenced to the biotin channel.

[2] = test system: infant male fecal microbiome; test: Flow cytometry binding to infant fecal microbiome; set-up: species or system human; conditions: fecal sample, 15 μg/mL intelectin + 10 mM CaCl2
Description: Human fecal samples provide a non-invasive proxy of the intestinal microbiome of a patient. The inventors have isolated the intestinal microbiome from human fecal samples and analyzed it for hIntL-1 binding. The isolated microbiome was fixed using an aqueous solution of 1% formaldehyde. Cells were stained as described elsewhere, using either a solution including calcium ions (100 mM) or one containing the calcium ion chelator EDTA. Microbes were exposed to 20 mM HEPES (pH 7.2), 150 mM NaCl, 10 mM CaCl2, 15 μg/mL Strep-tagged-hIntL-1, 0.1% bovine serum albumin (BSA), 0.05% tween-20, 2 μg/mL StrepMAB Classic conjugated to Oyster 645 (IBA Lifesciences, cat. no.: 2-1555-050). […] Cells are analyzed consecutively on a BD LSRII flow cytometer using identical instrument setting. […]
Humans have two intelectins: hIntL-1 and human intelectin-2 (hIntL-2). […] To compare hIntL-1 and hIntL02, the inventors isolated the intestinal mirobiome from human feces and analyzed it for hIntL-2 binding. […] The samples were processed and analyzed as described above. Cells were analyzed consecutively on a BD LSRII flow cytometer using identical instrument setting. […]

Molecule | carbohydrate binding on addition of EDTA [1] | fraction of cells of the infant microbiome bound by the intelectin [2]
B1 | prevents carbohydrate binding | –
B2 | – | ~32% and 32.2%
